The values below are quoted from earlier work in PMC8465902.

One data set has as its target IscU (Escherichia coli) (UniProt P0ACD4).
A further data set has as its target ISCU (Homo sapiens) (UniProt Q9H1K1).
Sequence of UniProt Q9H1K1 (Q9H1K1 35-167): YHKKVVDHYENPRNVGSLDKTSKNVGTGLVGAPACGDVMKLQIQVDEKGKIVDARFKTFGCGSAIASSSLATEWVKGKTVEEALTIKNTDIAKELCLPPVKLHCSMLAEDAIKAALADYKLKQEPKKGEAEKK

Sequence of UniProt P0ACD4 (P0ACD4 whole entry): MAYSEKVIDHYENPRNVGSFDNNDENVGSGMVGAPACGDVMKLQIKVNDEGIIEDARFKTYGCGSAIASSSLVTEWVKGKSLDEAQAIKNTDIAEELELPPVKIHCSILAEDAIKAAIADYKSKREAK

IscS (from UniProt P0A6B7): the equilibrium dissociation constant (Kd) in the data set with IscU (Escherichia coli) is 2000 nM. NFU1 CTD (from UniProt Q9UMS0): the Kd in the data set with ISCU (Homo sapiens) is 1100 nM.
